We go through 3 molecules from patent US20240158497A1 (published 2024).

The target in assay [1] is T1, Macaca Fascicularis GP130 extracellular domain expressed with a C-terminal myc-myc-hexahistidine tag (Macaca fascicularis, UniProt P40189 23-619 (human entry)).
T1 construct: also called mfGP130-MMH; mfGP130-mmH
T1 chain: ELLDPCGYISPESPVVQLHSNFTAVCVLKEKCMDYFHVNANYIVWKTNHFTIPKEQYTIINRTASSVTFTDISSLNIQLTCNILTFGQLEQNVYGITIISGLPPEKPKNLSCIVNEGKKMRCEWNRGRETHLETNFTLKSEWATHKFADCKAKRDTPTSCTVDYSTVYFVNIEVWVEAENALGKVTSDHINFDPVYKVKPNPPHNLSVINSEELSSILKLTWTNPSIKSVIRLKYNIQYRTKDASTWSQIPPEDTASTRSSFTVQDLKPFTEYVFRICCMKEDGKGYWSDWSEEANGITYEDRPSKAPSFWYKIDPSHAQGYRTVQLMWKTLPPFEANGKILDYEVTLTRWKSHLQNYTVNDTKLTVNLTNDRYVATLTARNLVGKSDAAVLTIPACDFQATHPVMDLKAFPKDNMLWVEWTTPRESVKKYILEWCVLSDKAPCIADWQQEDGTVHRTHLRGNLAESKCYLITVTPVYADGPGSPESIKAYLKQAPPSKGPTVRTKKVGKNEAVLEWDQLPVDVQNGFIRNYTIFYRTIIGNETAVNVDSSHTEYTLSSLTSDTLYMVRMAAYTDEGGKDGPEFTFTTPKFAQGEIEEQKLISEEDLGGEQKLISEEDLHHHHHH
The assay can be described thus: SPR, bsAb captured by anti-hFc, 25C. Summed up:
(§1)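 Anti-hFc-captured bispecific antibodies received 3-fold serial dilutions of LEPR or GP130 (100 nM–3.7 nM) in HBS-ET, pH 7.4, injected for 4 min with 10 min dissociation at 25 °C or 37 °C. ka and kd came from a 1:1 binding model with mass transport limitation, and KD and t½ were calculated from these rate constants.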

The target of assay [2] is T2, human GP130 extracellular domain expressed with a C-terminal myc-myc-hexahistidine tag (human, UniProt P40189 23-619).
T2 construct: also called hGP130-MMH; hGP130-mmH
The assay can be described thus: SPR, bsAb captured by anti-hFc, 25C. Summed up:
as §1

Assay [3] concerns the target T1, Macaca Fascicularis GP130 extracellular …. The assay can be described thus: SPR, bsAb captured by anti-hFc, 37C. Summed up:
as §1

Assay [4] addresses T2, human GP130 extracellular domain …. Kind of assay: SPR, bsAb captured by anti-hFc, 37C. Summed up:
as §1

B1: bsAb19155D (bispecific antibody, V domains shown)
VH 1: QVQLVESGGGVVQPGRSLRLSCTASGFTFSSYAMYWVRQAPGKGLEWVSVIYYDGSYKYYADSVKGRFTISRDNSKNTLYLQMDSLRAEDTAVYYCASYNWNYWYFDFWGRGTLVTVSS
VH 2: EVQLVESGGGLVQPGGSLRLSCAASGFTFSTYWMNWVRQAPGKGLEWVANIKEDGSEKYYVDSVKGRFTISRDNAKNSLYLQMNSLRAEDTAVYYCAREGFGVVTYIWGQGTMVTVSS
VL: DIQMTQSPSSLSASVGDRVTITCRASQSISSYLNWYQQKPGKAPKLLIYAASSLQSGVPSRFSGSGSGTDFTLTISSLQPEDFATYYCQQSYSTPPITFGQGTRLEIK
notes: LEPR x GP130 bispecific with common light chain
Take B1: in assay [1], the “100 nM mfGP130-MMH Bound (RU)” value was found to be 7 RU, binding was put at a Kd of 186 nM, the off-rate (koff) came out at 0.0184 s⁻¹ and the on-rate (kon) worked out at 98500 M⁻¹ s⁻¹. In assay [1], this molecule gave a t½ of 36 s. Moreover, the “100 nM hGP130-MMH Bound (RU)” value in assay [2] is 7 RU. Also, the “100 nM mfGP130-MMH Bound (RU)” value in assay [3] was found to be 3 RU. Moreover, in assay [4], the “100 nM hGP130-MMH Bound (RU)” value worked out at 4 RU and the binding result was “no binding (tested: 100 nM)”.

B2: bsAb19156D (bispecific antibody, V domains shown)
VH 1: B1 VH 1
VH 2: QVQLVESGGGLVKPGGSLRLSCAASGFTFSDYYMTWIRQTPGKGLDWVSYISSSGTNKYNADSVKGRFTISRDNAKNSLYLQMNSLRAEDTAVYYCVRDPPWGMDVWGQGTTVTVSS
VL: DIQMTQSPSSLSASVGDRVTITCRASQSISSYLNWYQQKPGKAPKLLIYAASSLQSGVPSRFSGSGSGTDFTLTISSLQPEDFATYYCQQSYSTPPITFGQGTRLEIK
notes: as for B1
As to B2, in assay [1], the “100 nM mfGP130-MMH Bound (RU)” value came to 30 RU, the Kd worked out at 22.1 nM, the off-rate (koff) was found to be 0.00162 s⁻¹ and the kon was found to be 73300 M⁻¹ s⁻¹. The same molecule came in with a t½ in assay [1] of 420 s. Further, in assay [2], the “100 nM hGP130-MMH Bound (RU)” value was found to be 27 RU, the equilibrium dissociation constant (Kd) was 24.7 nM, the dissociation rate constant (koff) came out at 0.00221 s⁻¹ and the kon was determined as 89500 M⁻¹ s⁻¹. In addition, the t½ in assay [2] was determined as 300 s. In assay [3], the “100 nM mfGP130-MMH Bound (RU)” value was 26 RU; the affinity, expressed as Kd, was 87.6 nM; the off-rate constant (koff) was found to be 0.00767 s⁻¹; the kon turned out to be 87500 M⁻¹ s⁻¹. This molecule also registered a t½ in assay [3] of 90 s. Besides, in assay [4], the “100 nM hGP130-MMH Bound (RU)” value stood at 24 RU, the Kd is 95 nM, the dissociation rate constant (koff) was determined as 0.00797 s⁻¹ and the association rate constant (kon) is 83900 M⁻¹ s⁻¹. Moreover, in assay [4], the t½ came to 84 s.

B3: bsAb19757D (bispecific antibody, V domains shown)
VH 1: EVQLVESGGGLVQPGGSLRLSCVASGFTFNKYDMHWVRQTTGKGLEWVSGIDTDGDTYYPGSVKGRFTISRENAENSLYLQMNGLRVGDTAVYYCARWPWSGFYGAFDIWGQGTMVTVSS
VH 2: EVQLVESGGGVVRPGGSLRLSCTASGFTFDDYGMSWVRQAPGKGLEWVSGINWNGGRTEYADAVKGRFIISRDNAKNSLYLQMNSLRAEDTALYFCARTELRWDYWGQGTLVTVSS
VL: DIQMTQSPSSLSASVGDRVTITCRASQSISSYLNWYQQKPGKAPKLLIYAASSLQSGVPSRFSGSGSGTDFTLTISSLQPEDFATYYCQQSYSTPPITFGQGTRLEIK
notes: as for B1
On to B3, for which, in assay [1], the “100 nM mfGP130-MMH Bound (RU)” value was found to be 15 RU, the dissociation constant Kd turned out to be 188 nM, the off-rate constant (koff) stood at 0.0204 s⁻¹ and the kon amounted to 108000 M⁻¹ s⁻¹. This molecule also had a t½ in assay [1] of 36 s. Also, in assay [2], the “100 nM hGP130-MMH Bound (RU)” value is 16 RU; the affinity, expressed as Kd, was 196 nM; the koff came out at 0.0218 s⁻¹; the on-rate (kon) was 112000 M⁻¹ s⁻¹. The molecule also displayed a t½ in assay [2] of 30 s. Further, in assay [3], the “100 nM mfGP130-MMH Bound (RU)” value amounted to 14 RU; the affinity, expressed as Kd, was 450 nM; the off-rate constant (koff) amounted to 0.0598 s⁻¹; the on-rate constant (kon) is 133000 M⁻¹ s⁻¹. This molecule yielded a t½ in assay [3] of 12 s. Besides, in assay [4], the “100 nM hGP130-MMH Bound (RU)” value is 16 RU, the equilibrium dissociation constant (Kd) was determined as 358 nM, the koff was 0.0635 s⁻¹ and the kon was 178000 M⁻¹ s⁻¹. The molecule further displayed a t½ in assay [4] of 12 s.
